Results as given in patent US20240317880A1 (KLING BIOTHERAPEUTICS B V, published 2024).
Substitutions are numbered along the chain they refer to. Names may count otherwise.

T1: recombinant soluble full length E-cadherin (without transmembrane and intracellular domains) mouse-Fc fusion … (human, UniProt P12830 155-709)
T1 construct: extracellular domain; Made in Expi293 or CHO cells; A C-tag-only version is also described; the ELISA used the mFc proteins; also called E-cadherin mFc; not shown: FLAG tag on a mouse Fc-tail equipped with a sortase and HIS tag
T1 sequence (looked up): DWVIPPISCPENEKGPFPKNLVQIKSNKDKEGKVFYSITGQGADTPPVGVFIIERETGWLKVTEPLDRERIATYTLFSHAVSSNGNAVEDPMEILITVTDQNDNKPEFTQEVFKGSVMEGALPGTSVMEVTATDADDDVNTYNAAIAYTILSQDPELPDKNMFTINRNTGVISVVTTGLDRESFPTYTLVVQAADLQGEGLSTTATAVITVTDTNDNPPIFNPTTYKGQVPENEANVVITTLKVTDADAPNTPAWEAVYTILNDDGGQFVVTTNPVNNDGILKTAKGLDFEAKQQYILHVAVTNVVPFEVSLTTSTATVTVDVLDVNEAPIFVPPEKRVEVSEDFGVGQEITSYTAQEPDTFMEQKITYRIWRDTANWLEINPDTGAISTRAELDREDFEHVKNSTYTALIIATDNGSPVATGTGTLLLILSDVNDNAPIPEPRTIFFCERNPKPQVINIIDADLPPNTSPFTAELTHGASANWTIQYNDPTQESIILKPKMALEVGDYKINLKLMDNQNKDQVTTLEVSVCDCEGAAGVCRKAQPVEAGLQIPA

T2: mouse E-cadherin on CMT93 cells (mouse, UniProt P09803 157-884)
T2 construct: whole, on cells
T2 sequence (looked up): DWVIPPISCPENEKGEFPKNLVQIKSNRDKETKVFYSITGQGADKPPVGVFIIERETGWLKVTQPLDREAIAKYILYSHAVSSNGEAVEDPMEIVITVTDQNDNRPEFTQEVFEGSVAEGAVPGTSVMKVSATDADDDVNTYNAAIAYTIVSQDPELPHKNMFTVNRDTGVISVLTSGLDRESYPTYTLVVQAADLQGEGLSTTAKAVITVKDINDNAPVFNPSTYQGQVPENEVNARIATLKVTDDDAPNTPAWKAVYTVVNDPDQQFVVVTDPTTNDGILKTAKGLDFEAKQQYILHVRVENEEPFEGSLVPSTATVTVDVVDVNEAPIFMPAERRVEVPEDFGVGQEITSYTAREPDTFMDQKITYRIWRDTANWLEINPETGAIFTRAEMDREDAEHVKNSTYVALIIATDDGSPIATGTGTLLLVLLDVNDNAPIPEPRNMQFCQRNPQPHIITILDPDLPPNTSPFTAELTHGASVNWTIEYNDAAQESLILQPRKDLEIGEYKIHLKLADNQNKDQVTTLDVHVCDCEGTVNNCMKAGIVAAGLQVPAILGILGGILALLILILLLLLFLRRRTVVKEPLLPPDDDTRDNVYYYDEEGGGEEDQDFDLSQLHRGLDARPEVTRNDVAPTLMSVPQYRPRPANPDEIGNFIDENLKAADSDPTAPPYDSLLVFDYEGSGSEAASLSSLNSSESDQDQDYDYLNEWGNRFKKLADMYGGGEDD

T3: truncated 70 kDa form of E-cadherin (p70), endogenous, from DLD1 cells (human, UniProt P12830 463-882, Ser/Thr residues found to be single O-mannosylated (mass spectrometry of AT1636-precipitated p70))
T3 construct: range 463-C-terminus; also called p70 E-cadherin; 70 kDa protein
T3 sequence (looked up): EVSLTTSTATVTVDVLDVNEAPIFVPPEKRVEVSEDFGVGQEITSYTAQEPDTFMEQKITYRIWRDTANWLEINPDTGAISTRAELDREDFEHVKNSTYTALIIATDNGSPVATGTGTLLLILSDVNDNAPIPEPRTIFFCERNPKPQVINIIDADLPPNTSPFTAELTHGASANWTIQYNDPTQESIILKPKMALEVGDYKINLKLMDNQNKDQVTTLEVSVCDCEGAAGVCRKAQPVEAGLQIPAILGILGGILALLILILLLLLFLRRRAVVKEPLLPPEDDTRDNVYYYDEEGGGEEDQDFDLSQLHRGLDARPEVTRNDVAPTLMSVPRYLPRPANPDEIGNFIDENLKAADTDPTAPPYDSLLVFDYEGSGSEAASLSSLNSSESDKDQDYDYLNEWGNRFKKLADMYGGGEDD

T4: recombinant soluble p70 E-cadherin mouse-Fc fusion protein (human, UniProt P12830 463-709)
T4 construct: range 463-end of the extracellular domain; Made in Expi293 or CHO cells; also called 70 kDa; human p70 E-cadherin-mouseFc-biotin; not shown: FLAG tag on a mouse Fc-tail equipped with a sortase and HIS tag
T4 sequence (looked up): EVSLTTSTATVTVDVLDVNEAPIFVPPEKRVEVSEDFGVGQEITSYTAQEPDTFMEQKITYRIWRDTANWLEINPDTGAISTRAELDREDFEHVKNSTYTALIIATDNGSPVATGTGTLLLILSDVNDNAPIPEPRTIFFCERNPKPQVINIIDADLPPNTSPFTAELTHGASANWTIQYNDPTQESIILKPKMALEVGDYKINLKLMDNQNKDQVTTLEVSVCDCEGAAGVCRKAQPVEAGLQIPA

T5: full length E-cadherin (about 120 kDa), on human cells or from their lysate (human, UniProt P12830 155-882, O-mannosylated in cells that express TMTC3, as the filing describes)
T5 construct: whole, on cells; also called CDH1; CD324
T5 sequence (looked up): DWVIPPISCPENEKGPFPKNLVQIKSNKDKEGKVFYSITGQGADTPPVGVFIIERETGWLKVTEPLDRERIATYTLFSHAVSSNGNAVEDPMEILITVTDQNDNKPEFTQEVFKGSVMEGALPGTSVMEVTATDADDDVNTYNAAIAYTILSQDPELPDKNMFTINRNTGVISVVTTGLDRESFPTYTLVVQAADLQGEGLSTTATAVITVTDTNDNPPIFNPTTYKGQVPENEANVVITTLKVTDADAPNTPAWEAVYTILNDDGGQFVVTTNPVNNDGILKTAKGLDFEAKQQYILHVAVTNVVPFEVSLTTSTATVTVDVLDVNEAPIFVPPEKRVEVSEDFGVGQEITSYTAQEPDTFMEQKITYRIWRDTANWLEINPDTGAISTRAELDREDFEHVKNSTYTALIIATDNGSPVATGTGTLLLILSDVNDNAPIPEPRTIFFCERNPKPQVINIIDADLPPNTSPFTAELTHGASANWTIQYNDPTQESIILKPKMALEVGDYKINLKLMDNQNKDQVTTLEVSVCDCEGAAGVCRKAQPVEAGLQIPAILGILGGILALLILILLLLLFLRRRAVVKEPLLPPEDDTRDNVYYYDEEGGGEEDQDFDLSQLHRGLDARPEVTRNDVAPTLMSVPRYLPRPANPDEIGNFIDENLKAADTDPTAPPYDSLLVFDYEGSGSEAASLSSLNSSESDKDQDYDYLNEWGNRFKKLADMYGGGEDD

B1: AT1636-YN (antibody, human IgG1, V domains shown)
VH: EVQLVESGGGLVKPGGSLRLSCAASGFTFSYAWMNWVRQAPGKGLEWVGRIKSKIDGGTTEYTTPVKGRFTISRDDSKDTVYLHMKRLKTEDTAVYYCTPGVGANNPYYFDRWGQGVLVTVSS
VL: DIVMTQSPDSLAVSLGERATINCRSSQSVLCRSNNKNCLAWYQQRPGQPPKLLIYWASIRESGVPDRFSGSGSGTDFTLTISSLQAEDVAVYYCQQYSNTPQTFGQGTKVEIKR
notes: also called -NY; AT1636-NY
B2: AT1636-E (antibody, human IgG1, V domains shown)
VH: B1 VH with Y31N, G58E, N106D
VL: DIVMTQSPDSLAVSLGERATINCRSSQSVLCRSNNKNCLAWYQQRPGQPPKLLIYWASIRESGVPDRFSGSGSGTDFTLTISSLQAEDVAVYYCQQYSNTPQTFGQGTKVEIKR
notes: also called G63E
B3: AT1636-Y (antibody, human IgG1, V domains shown)
VH: B1 VH with N106D
VL: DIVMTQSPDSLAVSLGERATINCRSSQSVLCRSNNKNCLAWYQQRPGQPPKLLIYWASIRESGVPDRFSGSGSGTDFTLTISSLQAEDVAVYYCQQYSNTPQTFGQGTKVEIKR
notes: also called N36Y
B4: AT1636-I (antibody, human IgG1, V domains shown)
VH: B1 VH with T28I, Y31N, N106D
VL: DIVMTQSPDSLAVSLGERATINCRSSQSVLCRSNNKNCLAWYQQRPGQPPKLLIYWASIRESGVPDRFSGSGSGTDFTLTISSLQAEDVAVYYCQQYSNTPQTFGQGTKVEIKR
notes: also called T29I
B5: AT1636-IYN (antibody, human IgG1, V domains shown)
VH: B1 VH with T28I
VL: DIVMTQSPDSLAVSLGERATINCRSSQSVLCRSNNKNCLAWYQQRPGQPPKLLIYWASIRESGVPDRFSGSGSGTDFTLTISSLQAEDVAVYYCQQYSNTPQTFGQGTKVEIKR
B6: AT1636-IYEN (antibody, human IgG1, V domains shown)
VH: B1 VH with T28I, G58E
VL: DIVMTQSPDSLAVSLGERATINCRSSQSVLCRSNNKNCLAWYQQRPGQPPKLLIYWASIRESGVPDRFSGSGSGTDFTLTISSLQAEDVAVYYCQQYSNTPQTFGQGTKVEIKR
B7: AT1636-N (antibody, human IgG1, V domains shown)
VH: B1 VH with Y31N
VL: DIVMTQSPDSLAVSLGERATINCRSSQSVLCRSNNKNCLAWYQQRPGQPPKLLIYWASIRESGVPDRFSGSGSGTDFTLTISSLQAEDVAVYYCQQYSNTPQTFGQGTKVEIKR
notes: also called D112N
B8: AT1636 (antibody, V domains shown)
VH: B1 VH with Y31N, N106D
VL: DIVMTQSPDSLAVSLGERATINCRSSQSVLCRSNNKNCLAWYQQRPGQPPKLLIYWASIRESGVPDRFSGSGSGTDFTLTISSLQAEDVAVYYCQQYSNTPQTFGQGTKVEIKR
notes: The original 7G02 antibody is IgG3; also called AT1636 wild-type; AT1636-wt

Target: T1, recombinant soluble full length …
Assay: ELISA on captured full length E-cadherin mFc
Procedure: (§1) TABLE 4 Calculation of the fold-increase in binding of the AT1636 variants compared to the parental AT1636 wild-type antibody to the Full-Length and p70 E-cadherin and the E-cadherin D3 mutated protein. EC₅₀ values were determined using Prism software. Fold increase in binding compared to AT1636 wild-type antibody
(§2) Recombinant E-cadherin mFc proteins were captured on 96-well plates (Costar) using goat-anti-mouse IgG Fcy antibodies (Jackson). […] Bound antibodies were visualized using a TMB substrate (Sigma) and the reaction was stopped with H₂SO₄(Merck) and quantified by OD450 measurement using an Envision plate reader (Perkin Elmer). As shown in FIG. 7b (two left panels), similar increased binding of AT1636-YN and -IYN antibody variants in comparison to AT1636 antibody was observed by ELISA to full length E-cadherin and p70. […] Here SC10.17, a humanized EC1 domain specific E-cadherin antibody binds full length E-cadherin but not the p70 truncated variant. Of note, all tested antibodies AT1636 variants, as well as AT1636 wild type, bind the truncated 70 kDa form of E-cadherin better than full length E-cadherin.

fold increase in binding compared to AT1636 wild-type antibody (ratio of ELISA EC50 values) | Binder
28.4 fold | B1
0.5 fold | B2
6.5 fold | B3
2.6 fold | B4
64.3 fold | B5
34.3 fold | B6
6 fold | B7

Target: T2, mouse E-cadherin on CMT93 cells
Assay: flow cytometry on mouse CMT93 cells

binding result | Binder
binds | B1
binds | B5
binds | B6

Target: T3, truncated 70 kDa form of E-cadherin …
Assay: immunoprecipitation from DLD1 lysate, western blot, densitometry
Procedure: The specific binding of AT1636 to p70 E-cadherin was confirmed by western blot. AT1636 reactivity was compared to the commercially available EP700Y (Abcam, rabbit antibody) and a mouse antibody specific for the cytoplasmic domain of E-cadherin (clone 36/E, BD Biosciences). […] The E-cadherin antibody immunoprecipitation was performed from DLD1 cells with equal amounts of lysate (10 mg) and antibodies (2,5 μg). Input (40 μg) and IP samples (all) were run on SDS-PAGE and transferred to PVDF membrane (Bio-Rad) for immunoblotting. Using the antibody binding the intracellular domain of E-cadherin as well as the EP700Y antibody, the full length (120 kDa) E-cadherin as well as the 70 kDa protein were immunoprecipitated, while AT1636 mainly immunoprecipitated the 70 kDa protein (FIG. 2b). Thus AT1636 preferentially binds p70 over full length E-cadherin as shown by the enrichment for p70 over full length E-cadherin. Upon densitometric quantification of the signals, we find a 7-fold enrichment of p70 over full length in the AT1636 IP, compared to the EP700Y IP.

fold enrichment of p70 over full length E-cadherin in the IP, compared to the EP700Y IP | Binder
7 fold | B8

Target: T4, recombinant soluble p70 E-cadherin …
Assay: ELISA on captured p70 E-cadherin mFc
Procedure: as §1, §2

fold increase in binding compared to AT1636 wild-type antibody (ratio of ELISA EC50 values) | Binder
56.5 fold | B1
0.2 fold | B2
6.6 fold | B3
2 fold | B4
67.1 fold | B5
28.6 fold | B6
4.5 fold | B7

Target: T5, full length E-cadherin (about 120 kDa), …
Assay: flow cytometry on DLD1 cells with TMTC3 shRNA against scrambled shRNA control

fold reduction in binding after TMTC3 knock-down | Binder
> 3 fold | B8
